Reference: article PMC10834949 (2024)

Target: Aβ42 fibrils Aβ42 (Homo sapiens, UniProt P05067)
Experiment: SPR

Sequence of Aβ42 fibrils Aβ42 (P05067 672-713): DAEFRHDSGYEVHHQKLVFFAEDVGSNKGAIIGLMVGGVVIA

- Kd: 12.9 nM
B1: BRICHOS (proSP-C) BRICHOS (protein)
chain: TATFSIGSTGLVVYDYQQLLIAYKPAPGTCCYIMKIAPESIPSLEALTRKVHNFQMECSLQAKPAVPTSKLGQAEGRDAGSAPSGGDPAFLGMAVSTLCGEVPLYYI
